Assay results as given in paper PMC10511320, “R-loop-dependent promoter-proximal termination ensures genome stability”.

What was measured:
[1] = target: SSB1 S172P/H173L (human, UniProt Q9BQ15 1-211, S172P;H173L); assay: EMSA; retains ssDNA binding; EMSA: 100 nM Cy3 probe, 20 mM Tris-HCl pH 7.5, 50 mM NaCl, 5 mM MgCl2, 0.2 mM EDTA, 1 mM DTT, on ice 30 min; 6% native PAGE, 0.5x TBE, cold room; conditions: protein: recombinant; label: 3' Cy3
[2] = target: SSB1 R206Q (human, UniProt Q9BQ15 1-211, R206Q); assay: as above; conditions: protein: recombinant; label: 3' Cy3
[3] = target: SSB1;INTAC complex (Integrator-PP2A) (human;human, UniProt Q9BQ15;Q8N201;Q9H0H0;Q68E01;Q96HW7;Q6P9B9;Q9UL03;Q9NVH2;Q75QN2;Q9NV88;Q9NVR2;Q5T …, |); assay: EMSA; supershift versus SSB1 alone; EMSA: 100 nM Cy3 probe, 20 mM Tris-HCl pH 7.5, 50 mM NaCl, 5 mM MgCl2, 0.2 mM EDTA, 1 mM DTT, on ice 30 min; 6% native PAGE, 0.5x TBE, cold room; conditions: protein: recombinant;recombinant; on-column cleavage; copies: 1;1;1;1;1;1;1;1;1;1;1;1;1;1;1;1;1; label: 3' Cy3

Measured: binding result

Chain of SSB1 R206Q (Q9BQ15 whole entry R206Q): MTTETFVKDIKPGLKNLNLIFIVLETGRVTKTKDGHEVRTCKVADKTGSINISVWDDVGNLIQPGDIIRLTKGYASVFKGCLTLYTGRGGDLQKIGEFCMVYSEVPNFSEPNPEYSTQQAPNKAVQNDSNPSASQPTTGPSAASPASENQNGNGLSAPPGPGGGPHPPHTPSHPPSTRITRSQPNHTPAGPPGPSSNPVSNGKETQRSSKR
Chain of SSB1 S172P/H173L (Q9BQ15 whole entry S172P/H173L): as the sequence (Q9BQ15 whole entry R206Q) above, with S172P, H173L, Q206R counted along it

TTTTTTTTTTTTTTTTTTTTTTTTTTTTTTTTTTTTTTTTTTTTTTTT (ssDNA) [oligo (dT)48]
binds: all assays above
